T1: Human Notch4-NRR domain Fc fusion protein (human, UniProt Q99466 1046-1445, limits assumed)
T1 construct: Expressed in a CHO cell line, used from culture supernatant; 1 is named; also called Human Notch4-NRR Fusion Protein; not shown: Fc
T1 sequence: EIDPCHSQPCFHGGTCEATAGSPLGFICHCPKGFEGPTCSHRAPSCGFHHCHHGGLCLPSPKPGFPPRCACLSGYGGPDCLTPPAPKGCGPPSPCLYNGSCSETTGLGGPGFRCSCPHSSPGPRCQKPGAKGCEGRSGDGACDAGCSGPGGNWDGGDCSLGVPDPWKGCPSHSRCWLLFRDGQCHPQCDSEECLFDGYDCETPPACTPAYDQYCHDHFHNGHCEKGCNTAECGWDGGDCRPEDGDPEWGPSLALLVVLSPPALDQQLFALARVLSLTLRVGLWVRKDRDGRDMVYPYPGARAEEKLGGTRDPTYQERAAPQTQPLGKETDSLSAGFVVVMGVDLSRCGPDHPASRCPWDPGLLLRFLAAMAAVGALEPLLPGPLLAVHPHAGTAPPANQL


What was measured:
[1] = target: T1, Human Notch4-NRR domain Fc fusion …; assay: SPR (Biacore) as for Table 30; Notch4-NRR-Fc captured, antibody injected; averaged, N=9
Method: (§1) Kinetic analysis of further anti-Notch4 inhibitory humanized antibodies was carried out as follows. Human Notch4-NRR domain Fc fusion proteins were expressed with a CHO cell line. The antigen in the culture supernatant was captured by the anti-human Notch4 antibody fixed on a CM5 sensor chip that recognizes different epitopes of human Notch4. The humanized anti-human Notch4 antibody was then injected onto the sensor chip at various concentrations. The interaction and disassociation constants thereof were calculated according to manufacturer's instructions.

[2] = target: Notch4 with a part of the intracellular domain substituted with GAL4 DNA binding domain, on b.end3 reporter …; assay: cell-based or functional assay
[3] = target: T1, Human Notch4-NRR domain Fc fusion …; assay: SPR (Biacore) as for Table 30; Notch4-NRR-Fc captured, antibody injected; averaged, N=5
Method: as §1

[4] = target: T1, Human Notch4-NRR domain Fc fusion …; assay: SPR (Biacore); Notch4-NRR-Fc captured by another anti-Notch4 antibody on CM5, antibody injected
Method: as §1

[5] = target: T1, Human Notch4-NRR domain Fc fusion …; assay: SPR (Biacore) as for Table 30; Notch4-NRR-Fc captured, antibody injected; averaged, N=3
Method: as §1

[6] = target: T1, Human Notch4-NRR domain Fc fusion …; assay: SPR (Biacore) as for Table 30; Notch4-NRR-Fc captured, antibody injected; averaged, N=2
Method: as §1

Kd [1] [nM]	koff [1] [s⁻¹]	kon [1] [M⁻¹ s⁻¹]	% of Control (relative luminescence), Notch4-GAL4 luciferase reporter assay, antibody at 10 µg/ml [2]	Kd [3] [nM]	koff [3] [s⁻¹]	kon [3] [M⁻¹ s⁻¹]	Kd [4] [nM]	koff [4] [s⁻¹]	kon [4] [M⁻¹ s⁻¹]	Kd [5] [nM]	koff [5] [s⁻¹]	kon [5] [M⁻¹ s⁻¹]	Kd [6] [nM]	koff [6] [s⁻¹]	kon [6] [M⁻¹ s⁻¹]	Binder
0.321	0.000742	2.35e+06														Mouse anti-human Notch4 monoclonal antibody 6-3-A6 (antibody, V domains shown, Mouse hybridoma antibody; cloned with primers for mouse IgG1 heavy chain and mouse Igκ light chain; also called Original) VH: EVQLVESGGGLVQPGGSLKLSCAASGFTFSSYGMSWVRQTPDKRLELVATINSNGGRTYYPDSVKGRFTISRDNAKNTLYLQMSSLKSEDTAMYYCARDQGFAYWGQGTLVTVSA VL: DIVMTQSHKFMSTSVGDRVSITCKASQDVGTAVAWYQQKPGQSPKLLIYWASTRHTGVPDRFTGSGSGTDFTLTISNVQSEDLADYFCQQYSSYPWTFGGGTKLEIK
			-9.9 % of Control	0.715	0.00127	1.81e+06	0.556	0.00106	1.91e+06							Antibody C (antibody, human IgG2, kappa, Humanized IgG2 (V234A, G237A)/κ; also called HK2L4 (Lys-); HK2L4(Lys-)) heavy: EVQLVESGGGLVQPGGSLRLSCAASGFTFSSYGMSWVRQAPGKGLELVSTINSNGGRTYYPDSVKGRFTISRDNSKNTLYLQMGSLRAEDMAVYYCARDQGFAYWGQGTLVTVSSASTKGPSVFPLAPCSRSTSESTAALGCLVKDYFPEPVTVSWNSGALTSGVHTFPAVLQSSGLYSLSSVVTVPSSNFGTQTYTCNVDHKPSNTKVDKTVERKCCVECPPCPAPPAAAPSVFLFPPKPKDTLMISRTPEVTCVVVDVSHEDPEVQFNWYVDGVEVHNAKTKPREEQFNSTFRVVSVLTVVHQDWLNGKEYKCKVSNKGLPAPIEKTISKTKGQPREPQVYTLPPSREEMTKNQVSLTCLVKGFYPSDIAVEWESNGQPENNYKTTPPMLDSDGSFFLYSKLTVDKSRWQQGNVFSCSVMHEALHNHYTQKSLSLSPG light: not shown
			21 % of Control	0.529	0.00109	2.1e+06	0.475	0.000863	1.82e+06							Antibody D (antibody, human IgG2, kappa, Humanized IgG2 (V234A, G237A)/κ; also called HK3L5 (Lys-); HK3L5(Lys-)) heavy: EVQLVESGGGLVQPGGSLRLSCAASGFTFSSYGMSWVRQAPGKGLELVATINSNGGRTYYPDSVKGRFTISRDNSKNTLYLQMGSLKAEDMAVYYCARDQGFAYWGQGTLVTVSSASTKGPSVFPLAPCSRSTSESTAALGCLVKDYFPEPVTVSWNSGALTSGVHTFPAVLQSSGLYSLSSVVTVPSSNFGTQTYTCNVDHKPSNTKVDKTVERKCCVECPPCPAPPAAAPSVFLFPPKPKDTLMISRTPEVTCVVVDVSHEDPEVQFNWYVDGVEVHNAKTKPREEQFNSTFRVVSVLTVVHQDWLNGKEYKCKVSNKGLPAPIEKTISKTKGQPREPQVYTLPPSREEMTKNQVSLTCLVKGFYPSDIAVEWESNGQPENNYKTTPPMLDSDGSFFLYSKLTVDKSRWQQGNVFSCSVMHEALHNHYTQKSLSLSPG light: DIQMTQSPSSLSASVGDRVTITCKASQDVGTAVAWYQQKPGKSPKLLIYWASTRHTGVPSRFSGSGSGTDFTLTISSLQPEDVATYFCQQYSSYPWTFGQGTKVEIKRTVAAPSVFIFPPSDEQLKSGTASVVCLLNNFYPREAKVQWKVDNALQSGNSQESVTEQDSKDSTYSLSSTLTLSKADYEKHKVYACEVTHQGLSSPVTKSFNRGEC
			5 % of Control				0.519	0.00115	2.23e+06	0.62	0.00115	1.87e+06				Antibody E (antibody, human IgG2, kappa, V domains shown, Humanized IgG2 (V234A, G237A)/κ; also called HK2L6 (Lys-); HK2L6(Lys-)) VH: EVQLVESGGGLVQPGGSLRLSCAASGFTFSSYGMSWVRQAPGKGLELVSTINSNGGRTYYPDSVKGRFTISRDNSKNTLYLQMGSLRAEDMAVYYCARDQGFAYWGQGTLVTVSS VL: EIVMTQSPATLSVSPGERATLSCKASQDVGTAVAWYQQKPGQSPRLLIYWASTRHTGIPARFSGSGSGTEFTLTISSLQSEDFAVYFCQQYSSYPWTFGQGTKVEIKR
			0.1 % of Control				0.555	0.000889	1.62e+06				0.395	0.00124	5.05e+06	Antibody A (antibody, human IgG2, kappa, Humanized IgG2 (V234A, G237A)/κ; also called HK2L3 (Lys-); HK2L3(Lys-)) heavy: EVQLVESGGGLVQPGGSLRLSCAASGFTFSSYGMSWVRQAPGKGLELVSTINSNGGRTYYPDSVKGRFTISRDNSKNTLYLQMGSLRAEDMAVYYCARDQGFAYWGQGTLVTVSSASTKGPSVFPLAPCSRSTSESTAALGCLVKDYFPEPVTVSWNSGALTSGVHTFPAVLQSSGLYSLSSVVTVPSSNFGTQTYTCNVDHKPSNTKVDKTVERKCCVECPPCPAPPAAAPSVFLFPPKPKDTLMISRTPEVTCVVVDVSHEDPEVQFNWYVDGVEVHNAKTKPREEQFNSTFRVVSVLTVVHQDWLNGKEYKCKVSNKGLPAPIEKTISKTKGQPREPQVYTLPPSREEMTKNQVSLTCLVKGFYPSDIAVEWESNGQPENNYKTTPPMLDSDGSFFLYSKLTVDKSRWQQGNVFSCSVMHEALHNHYTQKSLSLSPG light: not shown
			13 % of Control	0.76	0.00124	1.86e+06	0.633	0.00111	1.78e+06							Antibody G (antibody, human IgG2, kappa, Humanized IgG2 (V234A, G237A)/κ; also called HK3L4 (Lys-); HK3L4(Lys-)) heavy: EVQLVESGGGLVQPGGSLRLSCAASGFTFSSYGMSWVRQAPGKGLELVATINSNGGRTYYPDSVKGRFTISRDNSKNTLYLQMGSLKAEDMAVYYCARDQGFAYWGQGTLVTVSSASTKGPSVFPLAPCSRSTSESTAALGCLVKDYFPEPVTVSWNSGALTSGVHTFPAVLQSSGLYSLSSVVTVPSSNFGTQTYTCNVDHKPSNTKVDKTVERKCCVECPPCPAPPAAAPSVFLFPPKPKDTLMISRTPEVTCVVVDVSHEDPEVQFNWYVDGVEVHNAKTKPREEQFNSTFRVVSVLTVVHQDWLNGKEYKCKVSNKGLPAPIEKTISKTKGQPREPQVYTLPPSREEMTKNQVSLTCLVKGFYPSDIAVEWESNGQPENNYKTTPPMLDSDGSFFLYSKLTVDKSRWQQGNVFSCSVMHEALHNHYTQKSLSLSPG light: not shown
			17 % of Control				0.982	0.00136	1.55e+06				0.434	0.000894	3.5e+06	Antibody F (antibody, human IgG2, kappa, Humanized IgG2 (V234A, G237A)/κ; also called HA2L3 (Lys-); HA2L3(Lys-)) heavy: EVQLVESGGGLVQPGGSLRLSCAASGFTFSSYGMSWVRQAPGKGLELVSTINSNGGRTYYANSVKGRFTISRDNSKNTLYLQMGSLRAEDMAVYYCARDQGFAYWGQGTLVTVSSASTKGPSVFPLAPCSRSTSESTAALGCLVKDYFPEPVTVSWNSGALTSGVHTFPAVLQSSGLYSLSSVVTVPSSNFGTQTYTCNVDHKPSNTKVDKTVERKCCVECPPCPAPPAAAPSVFLFPPKPKDTLMISRTPEVTCVVVDVSHEDPEVQFNWYVDGVEVHNAKTKPREEQFNSTFRVVSVLTVVHQDWLNGKEYKCKVSNKGLPAPIEKTISKTKGQPREPQVYTLPPSREEMTKNQVSLTCLVKGFYPSDIAVEWESNGQPENNYKTTPPMLDSDGSFFLYSKLTVDKSRWQQGNVFSCSVMHEALHNHYTQKSLSLSPG light: not shown

Source: patent publication US20170096493A1 (EISAI R AND D MANAGEMENT, published 2017)
